Measured values taken from PMC13612217.

Target: S-chain of the optimized human DROP-CAR containing dmLD3 (human)

- percent of anti-PSMA DROP-CAR Jurkat cells still bound to a PC3-PIP monolayer at 1,000 pN (z-Movi acoustic force ramp), with venetoclax, partially detached cells counted as bound: 30%
- percent of anti-PSMA DROP-CAR Jurkat cells still bound to a PC3-PIP monolayer at 1,000 pN (z-Movi acoustic force ramp), with venetoclax, partially detached cells counted as dissociated: < 10%
- percent of anti-PSMA DROP-CAR Jurkat cells still bound to a PC3-PIP monolayer at 1,000 pN (z-Movi acoustic force ramp), without venetoclax, partially detached cells counted as bound: 64%
- percent of anti-PSMA DROP-CAR Jurkat cells still bound to a PC3-PIP monolayer at 1,000 pN (z-Movi acoustic force ramp), without venetoclax, partially detached cells counted as dissociated: 30%
Substance: R-domain of the anti-PSMA DROP-CAR (J591 scFv fused to Bcl-2)
